In publication PMC5694952 (The EMBO Journal, 2016):
One block for each binder: values may come before it.

B1: chloroplast ribosomal protein bL21c (natural protein, UniProt P24613 56-256, looked up)
chain: AKRRRFQEIPEELKAEFEEFQRPPNQKPQLSDVLPDDFQAPEPGTPEYNDIINQFLPKKGPPPPREEIFAVVVIGSRQYIVIPGRWIYTQRLKGATVNDKIVLNKVLLVGTKASTYIGTPIVTNAAVHAVVEEQLLDDKVIVFKYKKKKNYRRNIGHRQPITRIKITGITGYEDYPASTLEAEVEAKEEAEAEAEAEAVPV
B4: chloroplast ribosomal protein uS5c (natural protein, UniProt Q9ST69 56-308, looked up)
chain: CIKKDDIDITFFEQDNPDEEITFDPPEKPEGYIPPRAVDEPPFESEEEIALAYEELYGAAYSGESLLGNDVYAMDSKIKKATGFGSKSKKEKIRDGFEENVVQVRRVTKVVKGGKHMRFRAIVVVGDKKGQVGVGVGKAKEVVSAVQKAAVDARRNIITVPMTKYLTFPHRNEADYGAARVMLRPAAPGTGVIAGGAVRTVLEMAGVENALGKQLGSNNALNNARATIVAVQTMRQFSDVARDRGIPMEELWK

Assays:
Experiment in all cases: cryo-EM structure
[1] = target: T1, chloroplast ribosomal protein uS13c (spinach (Spinacia oleracea) (endogenous …, UniProt P82163 48-172))
T1 sequence (looked up): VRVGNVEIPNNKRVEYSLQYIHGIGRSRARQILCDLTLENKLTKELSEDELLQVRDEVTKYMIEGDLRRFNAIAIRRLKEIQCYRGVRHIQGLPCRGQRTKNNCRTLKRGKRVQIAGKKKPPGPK

[2] = target: T2, chloroplast ribosomal protein uL13c (spinach (Spinacia oleracea) (endogenous …, UniProt P12629 48-250))
T2 sequence (looked up): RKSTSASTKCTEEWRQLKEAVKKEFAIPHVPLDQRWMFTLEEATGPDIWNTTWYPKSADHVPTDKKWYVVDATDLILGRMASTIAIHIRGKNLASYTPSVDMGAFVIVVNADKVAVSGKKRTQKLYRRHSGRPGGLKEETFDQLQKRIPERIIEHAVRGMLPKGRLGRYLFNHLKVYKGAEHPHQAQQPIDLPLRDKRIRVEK

[3] = target: T3, chloroplast ribosomal protein bS1c (spinach (Spinacia oleracea) (endogenous …, UniProt P29344 42-411))
T3 sequence (looked up): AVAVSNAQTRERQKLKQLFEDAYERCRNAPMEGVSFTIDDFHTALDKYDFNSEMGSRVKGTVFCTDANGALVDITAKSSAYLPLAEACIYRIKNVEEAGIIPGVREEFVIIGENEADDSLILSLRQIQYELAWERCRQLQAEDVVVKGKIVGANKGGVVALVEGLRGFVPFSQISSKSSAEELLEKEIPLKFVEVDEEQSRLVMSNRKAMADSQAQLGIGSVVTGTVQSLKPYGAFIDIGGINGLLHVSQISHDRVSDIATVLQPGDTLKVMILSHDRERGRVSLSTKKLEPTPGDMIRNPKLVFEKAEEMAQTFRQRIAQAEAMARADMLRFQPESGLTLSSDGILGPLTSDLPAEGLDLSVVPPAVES

[4] = target: B4
[5] = target: B1
[6] = target: T4, chloroplast ribosomal protein bL20c (spinach (Spinacia oleracea) (endogenous …, UniProt P28803 1-128))
T4 sequence (looked up): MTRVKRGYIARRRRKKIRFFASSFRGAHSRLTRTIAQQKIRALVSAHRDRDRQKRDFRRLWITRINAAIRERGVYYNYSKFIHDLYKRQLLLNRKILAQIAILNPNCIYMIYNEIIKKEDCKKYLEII

[7] = target: T5, chloroplast ribosomal protein uL23c (spinach (Spinacia oleracea) (endogenous …, UniProt Q9LWB5 77-198))
T5 sequence (looked up): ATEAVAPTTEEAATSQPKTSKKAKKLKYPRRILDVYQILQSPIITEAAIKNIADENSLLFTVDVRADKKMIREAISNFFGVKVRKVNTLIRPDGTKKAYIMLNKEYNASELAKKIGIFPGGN

Binder: GRGDRKTAKGKRFNHSFGNARPKNKNKGRGPPKAPIFPKGDPSQKED (natural protein, UniProt P47910 55-101, looked up) [plastid-specific ribosomal protein bTHXc]
binding result [1]: binds

Binder: B1
binding result [2]: binds

Binder: B4
binding result [3]: binds

B6: chloroplast ribosomal protein uS3c (natural protein, UniProt P09595 1-218, looked up)
chain: MGQKINPLGFRLGTTQSHYSLWFSQPKNYAEGLQEDQKIRDCIKNYVQKNTKTSSGVEGIARIEIQKRIDLIQVIIHMGFPKLLIENRPQGVEDLKINVQKELNCVNRKLNIAITRIAKPYGDPNILAEFIAGQLKSRVSFRKAMKKAIELTEQADTKGIQIQIAGRIDGKEIARIEWIREGRVPLQTIRAKIDYCAYTVRTIYGVLGIKIWIFMGEE
binding result [4]: binds

B7: chloroplast ribosomal protein uL22c (natural protein, UniProt P09594 1-199, looked up)
chain: MGFFKKKEKKAEFDVFRLYGLHHPEPGKCDEITTRGYSISMSVDKARRVIDQIRGRSYAETLMILELMPYRACYPIFKLIYSAAANASHNKQFNKANLIISKAEVNKGITLKKVKPRARGRSYMIKRPTCHITIVLRDITHFDSYDKFLESLTPKKLIALLGLMSTGRRRELLCGRFRENHKIKSFLYKIALFKRYEVM
binding result [2]: binds

Continued, values first:

binding result [3]: binds
binding result [4]: binds
B2: chloroplast ribosomal protein uS2c (natural protein, UniProt P08242 1-236, looked up)
chain: MTRRYWNINLEEMMEAGVHFGHGTRKWNPRMSPYISAKCKGIHIINLTRTARFLSEACDLVFDASSRGKQFLIVGTKNKAADSVARAAIRARCHYVNKKWLGGMLTNWSTTETRLHKFRDLRMEQTAGRLARLPKRDAAVVKRQLSHLQTYLGGIKYMTGLPDIVIIVDQQEEYTALRECITLGIPTICLIDTNCNPDLADISIPANDDAIASIRLILTKLVFAICEGRSSYIRNP

binding result [5]: binds
binding result [6]: binds
B3: plastid-specific ribosomal protein cL38 (natural protein, UniProt P82411 48-116, looked up)
chain: SSRPQKKGTAHHMKTRPKKTARWDIKRGPAVYPPLPPLPAEWTIVSSAVDEADSSSSTTSSSAEIAQSA

binding result [7]: binds
B5: chloroplast ribosomal protein uL29c (natural protein, UniProt P82248 59-168, looked up)
chain: VKKEDELKELRTKTNEQLNEEILQLKGELFMLRLQRSARENFKPSDFGRMRKRVARMLTVKREREIEQGVGKRLSRKLDKAWKRSIVVRPPPSLKKLQEKATAEAEAEKA
